Test results as given in patent US10556007B2, “Antibody which binds Lrg1 and methods of use” (UCL Business PLC, priority 2015, dated 2020).
Entries after “also recorded” stand apart in the source; their conditions may differ.

What was measured:
[1] = system: laser-induced choroidal neovascularisation; assay: Rat laser-induced choroidal neovascularisation (CNV); type: in vivo; details: Long Evans rats, intravitreal at time of lasering, analysis 7 days later
Description: Several antibodies were tested for their ability to block CNV in the rat. In these experiments mAbs were injected intravitreally at the time of lasering, with eyes being retrieved for analysis 7 days later (FIG. 5). Long Evans rats, aged 6-8 weeks, each received 5 retinal laser burns at the same time as intravitreal delivery of […] mAb or control IgG into both eyes. Four rats were used for each mAb, so a total of 40 lesions were analysed by staining for collagen IV and the neovascular areas quantified. […] Avastin was also tested in the rat laser model (data not shown) and observed to have no effect, consistent with Avastin having low affinity for rat VEGF.

human Lrg1 = target: T1, human Lrg1 (Homo sapiens, UniProt P02750); assay: Anti-human Lrg1 competition ELISA against biotinylated mouse 15C4; type: binding; set-up: made in house; details: competition with biotinylated mouse 15C4
T1 sequence (P02750 36-347): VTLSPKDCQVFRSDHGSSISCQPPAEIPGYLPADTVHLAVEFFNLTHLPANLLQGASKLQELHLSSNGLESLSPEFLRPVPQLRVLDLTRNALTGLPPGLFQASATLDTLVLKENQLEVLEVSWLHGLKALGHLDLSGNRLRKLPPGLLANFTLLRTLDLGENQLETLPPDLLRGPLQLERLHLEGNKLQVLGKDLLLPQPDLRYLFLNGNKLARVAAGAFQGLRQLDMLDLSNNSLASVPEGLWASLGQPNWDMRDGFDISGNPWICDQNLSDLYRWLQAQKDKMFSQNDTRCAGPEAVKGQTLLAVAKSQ
Description: The chimeric antibody was expressed transiently in HEK EBNA cells and stably in NS0 mouse myeloma cells, purified and tested for binding to human Lrg1 in a competition ELISA assay. A Nunc Immuno MaxiSorp 96 well flat bottom microtitre plate (Fisher, cat. no. DIS-971-030J) was pre-coated with 0.2 μg/ml hLrg1 (supplied by UCL) overnight in 0.1 N Sodium Carbonate buffer (NaHCO3) at +4° C. The following day the plate was washed 1× with PBST and blocked with 3% BSA/PBS for 1 hour at room temperature. After washing 3× with PBST, a three-fold dilution series of chimeric, mouse or control antibodies from 100 μg/ml to 0.13 μg/ml was premixed with a constant concentration of biotinylated mouse 15C4 (0.4 μg/ml, final concentration), added to the plates and incubated for 1.5 hours at room temperature. Following 3×PBST washes, the binding of the biotinylated mAb was detected with streptavidin-HRP (Sigma, cat. no. 55512) and TMB substrate (Invitrogen, cat. no. 00-2023). The reaction was stopped with 3 M HCl, absorbance read at 450 nm on a Dynex Technologies MRX TC II plate reader and the binding curves plotted.
The properties of Magacizumab were investigated. […] An anti-hLrg1 competition ELISA was carried out. […] Bound biotinylated mouse 15C4 was detected using streptavidin-peroxidase and TMB substrate. […]

[2] = system: laser-induced choroidal neovascularisation; assay: Mouse model of laser-induced CNV; type: in vivo; details: for lesion size: C57B6 mice, intravitreal
Description: The images on the left of FIG. 17A show a typical wild-type mouse retina under normal illumination (Fundus), and under fluorescence illumination, 7 days after three laser burns were administered to the retinal pigment epithelium. Fluorescence images were captured ˜60 seconds after systemic dosing with fluorescein (Early Phase FFA) and again after ˜7 minutes (Late Phase FFA). At the time of lasering, animals received intraocular injections of either control IgG (top panels) or 15C4 (lower panels). The Early Phase FFA images show the size of the lesions, and the Late Phase images show leakage of fluorescein into the retina. Lesion sizes were quantified for 15C4 at 2.5, 5 and 10 μg doses, and also Eylea at 2 and 4 μg, and the % blocking is a measure of average lesion size relative to that observed in the controls. On the far right a similar analysis was undertaken using Eylea and Magacizumab (both at 2.1 μg) alone and in combination.
Wild type C57B6 mice were anaesthetized and received intravitreal injections of various doses of either Magacizumab, Eylea, or both in combination, immediately following laser photocoagulation of the retinal pigment epithelium. After 7 days (to allow the vascular lesions to form) the mice were again anaesthetized and examined by fluorescein angiography (FFA). Early phase FFA images (taken after 90 s) show the degree of vascularization at the lesion site. Measurement of the lesion area in the early phase images permits quantification in which percentage lesion size is normalized against the IgG4 control (FIG. 18).

healthy donor T cells = assay: EpiScreen T cell proliferative assay; type: cell-based, human; details: 20 donor T cell samples, days 5-8
From the text: FIG. 21D—Summary of healthy donor T cell proliferative responses. Positive T cell responses during EpiScreen™ time course days 5-8 are shown (P). Samples inducing proliferation with SI ≥2.00 that were significant (p<0.05) were considered positive (borderline responses* SI≥1.90, p<0.05 are also shown). The frequency of positive T cell responses for proliferation are shown as a percentage at the bottom of the columns.

[3] = Analytical size exclusion chromatography; type: physicochemical

Molecule: Avastin: anti-VEGF antibody Bevacizumab (Avastin) [reference compound]
- blockade of angiogenesis (CNV) [1]: no effect

B1: chimeric: murine 15C4 variable regions combined with human IgG4 (S241P) heavy chain and Kappa light chain constant regions (antibody, V domains shown)
VH: QVQLQQSGDEVVRPGSSVKISCKASGYTFSGYWMNWVKQRPGQGLQWIGQIYPGDGDTNYNGKFKGKATLTADKSSSTAYMQLSTLTSEDSAIYFCARSITTVVLDYWGQGTTLTVSS
VL: DIVLTQSPVSLAVSLGQRATISCRASQSVSTSGYSFMHWYQQKPGQPPKFLIKYASNLESGVPARFSGSGSGTDFTLNIHPVEEEDTATYYCQHSWEMPLTFGAGTKLELK
- binding profile / competition for binding to human Lrg1 (human Lrg1): very similar binding profile to mouse 15C4

B2: Magacizumab: humanised 15C4 antibody comprising heavy chain variable regions VH5 and kappa light chain variable regions VK3 (antibody, V domains shown)
VH: QVQLVQSGAEVKKPGSSVKVSCKASGYTFSGYWMNWVRQAPGQGLEWIGQIYPGDGDTNYNGKFKGRVTITADKSTSTAYMELSSLRSEDTAVYYCARSITTVVLDYWGQGTTVTVSS
VL: DIVLTQSPDSLAVSLGERATISCRASQSVSTSGYSFMHWYQQKPGQPPKLLIKYASNLESGVPARFSGSGSGTDFTLTISSLQPEDFATYYCQHSWEMPLTFGQGTKLEIK
- lesion size ([2]; alone, vs IgG4 control): significant reduction in lesion size
- lesion size ([2]; in combination with Eylea, vs control): significant reduction in lesion size
- lesion formation ([2]; intraocular injection at lasering, FFA after 7 days): Dose-Dependent Inhibition of Lesion Formation; also recorded: inhibit lesion formation with similar efficacy to the VEGF blocker Eylea
- T cell proliferative response (healthy donor T cells): failed to elicit a proliferative response in any of the 20 donor T cell samples
- aggregation by analytical size exclusion chromatography [3]: single peak and no aggregates
